From the DeepSol protein solubility set

Assay: soluble on expression in E. coli; label from the status in PepcDB or PDB records

| Sequence | soluble on expression in E. coli |
| --- | --- |
| NGYEALIMTHSAVTDPPLMIRSADNSLIKADDKTLLTALEAEGIGSYSFILTGEGLVKTKYRQQAVSLMGVDDRYPRTVKIDSIVFAGTFATDTLSGATALNVGAAIATEMQLGAGFVEAVEVIVPRRIGLINPLVPAGAFKSLQGQVASVFASGLQPEDNSIILSIDSLRKLLDYSDHEAEAVAIQLRTGSDAEQIALRLKETLGDSYQVLDLAGQHPEITHLIAMEKWMS | not soluble |
| MNVNRLLIVGAGAFGREVHAWLLDWVKLNPGWVIAGFINDGPGSIARFDHYPAVVSSVEGYEPGPEDYLVCAIAKPADKRLVVEKLLGKGARFFTLIHPSVIMGENVVIGQGAVICPSTVLSVDLRIGAFVTLNIGCLVGHDADIGDFSTLSGHCDITGGVVLEEEVFMGTHASVLPNVKVGKQAVVGAGSVAIRNVAAGITVFGVPAKRISGLEHHHHHH | not soluble |
| MSQKTEQDDIPLADDDDTVTIISGGKTPRAAQPLPKEEPPEDPEEKARMITQVLELQNTLDDLSQRVESVKEESLKLRSENQVLGQYIQNLMSSSSVFQSSQPSRPKQ | soluble |
| SPLLLYTCLLWLPTSGLWTVQAMDPNAAYVNMSNHHRGLASANVDFAFSLYKHLVALSPKKNIFISPVSISMALAMLSLGTCGHTRAQLLQGLGFNLTERSETEIHQGFQHLHQLFAKSDTSLEMTMGNALFLDGSLELLESFSADIKHYYESEVLAMNFQDWATASRQINSYVKNKTQGKIVDLFSGLDSPAILVLVNYIFFKGTWTQPFDLASTREENFYVDETTVVKVPMMLQSSTISYLHDAELPCQLVQMNYVGNGTVFFILPDKGKMNTVIAALSRDTINRWSAGLTSSQVDLYIPKVTISGVYDLGDVLEEMGIADLFTNQANFSRITQDAQLKSSKVVHKAVLQLNEEGVDTAGSTGVTLNLTSKPIILRFNQPFIIMIFDHFTWSSLFLARVMNPV | soluble |
| AHHHHHHGSGWWYTTNLRSRSNDMDKPEEILNEKDIIKRAYKFGFYVGLHGHTDWFGWVAEVKKKIYEEAKHLGVYEEVKKAYIKGKKAGRVEREKRIHLGLMKQTTSEIPEKIKIVSIERNRGSIASLNFPKIEDMPKTIKKPRFFRLPKILRGGEE | not soluble |
| GSLPEVLQAPVGSSILVQCHYRLQDVKAQKVWCRFLPEGCQPLVSSAVDRRAPAGRRTFLTDLGGGLLQVEMVTLQEEDAGEYGCMVDGARGPQILHRVSLNILPP | soluble |
| MKLIIHQKWYLQQVKDTFTNLQAPRLHWALRNALNTAAKQVERFTEKQVADLSSAQIKRIRRGVYIKEKATARFLETDLIGSGTPLPLKFFKAKETKHGVTYTLFGKKQILTHGFIKGGSFPKRVDLKMGGNVFQRDDGDQFPIAKQEGPSIAKVMSKPEIASAIAQYANERLTKNIQRQLARQEYAANKKG | not soluble |
| MGSDKIHHHHHHYATVEPLHINRFDKDLFRLIDTGDTTLQPELIKQYPEMLDIIGKGILNLQTIETPGFFEKMRNYYSEPTLKGLYRDAITQYDSVEDIEKSLGYGFAYLKENFPSMQIPAIYMHVSGFNQNVLVGDSLLSLSIDKYMGKDYPLYQDFFYDSQKLKMQRGLVVPDYLAGWLMSEYPFAGKENVLLDRMIYEGKIKYLLSQALGVPDAAELMGYTEQAYNWCKDNEGTIWKAIIERKHLYTPDQLTTSQYFEDTPTIFPGNDAPGNIGTWIGWQIINQYIKETGSTPEALMQNNDAQEILTASKYKPL | not soluble |
| MTHNIHDNISQWMKSNEETPIVMSSRIRLARNLENHVHPLMYATENDGFRVINEVQDALPNFELMRLDQMDQQSKMKMVAKHLISPELIKQPAAAVLVNDDESLSVMINEEDHIRIQAMGTDTTLQALYNQASSIDDELDRSLDISYDEQLGYLTTCPTNIGTGMRASVMLHLPGLSIMKRMTRIAQTINRFGYTIRGIYGEGSQVYGHTYQVSNQLTLGKSELEIIETLTEVVNQIIHEEKQIRQKLDTYNQLETQDRVFRSLGILQNCRMITMEEASYRLSEVKLGIDLNYIELQNFKFNELMVAIQSPFLLDEEDDKSVKEKRADILREHIK | not soluble |
| MSDVIFLRQYDDIDIVSSPSQNNIIFGHEAARHFLAQILKEERLPHAILFEGDYGIGKATLAFHLAWNILSSQKDGFKQPEHNSVIWRQITQGSHPGLLHISRRFDVKTQKFKTGILFDDIRDIIHFLNRTSKDSGWRIVIIDPADDMNRNAANAILKTLEEPPAKTLFIIITHFSGKLLPTIRSRCQQISLRPLHNDEMKKIIIHMFSNQNVIDEENIGMIIQKSNGNPRKAALLIHGGFEIIKTIDTLLGQSVCNPTIVHNLAQTLSSLSSVIQFQQFCDEILDKIQKKAIMLAERGNLALSKKCAQAWQEIHQEIGEIQSFNLDKKQFIINLLFRVHKIICESELFP | not soluble |
